According to publication PMC4692362:

Target: FLAG-Nrxn1β(−SS4) (UniProt Q63373)
Assay: cell surface binding with Scatchard analysis

- Kd: 2.22 nM
Substance: SorCS1-ecto-His (from UniProt Q9JLC4 34-1098) (domain or fragment)
